Experimental data: US10927157B2, “Helix-grafted proteins as inhibitors of disease-relevant protein-protein interactions” (priority 2014, dated 2021)

B1: GLUE-Cpep: helix-grafted GLUE PH domain displaying gp41 C-peptide on its C-terminal helix (grafted helix SEQ ID NO:3) (protein)
chain: MEYWHYVETTSSGQPLLREGEKDIAIDQSVGLYHGKSKILQRQRGRIFLTSQRIIYIDDAKPTQNSLGLELDDLAYVNYSSGFLTRSPALILFFKDPSSSTEFVQLSFRKSDGVWFSWATEIALYTILIHSLIEESQNQQEKNEQELL
B2: wtELMO: wild-type form of ELMO (Engulfment and Cell Motility) PTB domain, PDB 2VSZ (protein)
chain: PILELKEKIQPEILELIKQQRLNRLVEGTCFRKLNARRRQDKFWYCRLSPNHKVLHYGDLEESPQGEVPHDSLQDKLPVADIKAVVTGKDCPHMKEKGALKQNKEVLELAFSILYDSNCQLNFIAPDKHEYCIWTDGLNALLGK

Experiments:
HIV-1 IIIB virus = experiment: In cellulo HIV-1 infection assay (CEM-GFP cells, flow cytometry); assay type: cell-based
Procedure: The ELMO grafts were tested as potential inhibitors of HIV-1 in cellulo. The validated assay uses a Lymphoblastoid CD4^+ T-cell line with stably integrated EGFP (CEM-GFP) under the control of the HIV-1 long terminal repeat (LTR) promoter. 293T cells are simultaneously transfected with HIV-1 IIIB virus. The infected cells and non-infected cells are mixed together along with the desired inhibitor. If infection succeeds the number of infected GFP^+ cells increases, which can be measured by flow cytometry (FIG. 18). The inhibition of each ELMO construct was determined in a dose depended manner and compared to C34 and T20 (FIG. 19).

5-helix [1] = target: T1, 5-helix (Human immunodeficiency virus type 1 group M subtype B, UniProt P04578, C598G/DEL583-596/DEL601-623/N624G); conditions: untagged ligand, E. coli cell lysate, Ni-NTA
Procedure: Lysate Ni-NTA Pulldown Assay: GLUE-Cpep was cloned into MCS1 of pETDuet-1 using restriction enzymes NcoI and NotI. The 5 helix with a C-terminal His6× tag was cloned into MCS2 of pETDuet-1 using the restriction enzymes NdeI and KpnI. Completed constructs were transformed into BL21s (DE3). Cells containing the co-expressed pair were inoculated and induced as described previously. Cells were spun down and resuspended in lysis buffer (100 mM NaCl, 20 mM Tris pH 7.4, 10 mM (NH4)2SO4), lysed by sonication, and spun down to remove cell debris. Cleared lysate was incubated with 200 μL Ni-NTA agarose resin for 1 hour. Ni-NTA agarose was washed with 8 mL lysis buffer and with 10 mM imidazole. Proteins were eluted with 500 μL lysis buffer containing 400 mM imidazole.

5-helix [2] = target: T1, 5-helix; conditions: 50 nM, 25% human serum, 37 °C, 4 or 12 h
Procedure: Colorimetry was developed using TMB-One substrate and absorbance was measured at 655 nm on a SynergyMx Microplate Reader.

5-helix [3] = target: T1, 5-helix; conditions: E. coli cell lysate, FLAG-tagged ligand, Ni-NTA plates
Procedure: ELISA: Separately, wt-GLUE, GLUE-Cpep, and the C-peptide were cloned into MCS1 of pETDuet-1 with FLAG tags using restriction enzymes NcoI and NotI. The 5-helix with a C-terminal His6× tag was cloned into MCS2 of pETDuet-1 using restriction enzymes NdeI and KpnI. Completed constructs were transformed into BL21s (DE3). Cells containing the co-expressed pair were inoculated and induced as described previously. Cells were spun down and resuspended in lysis buffer (20 mM Hepes pH 7.5, 100 mM NaCl), lysed by sonication, and spun down to remove cell debris. Cleared lysates were incubated on clear Ni-NTA coated plates for 1 hour at room temperature and washed 4× with 200 μL wash buffer (20 mM Hepes pH 7.5, 150 mM NaCl, 0.05% Tween-20, 0.01 mg/mL BSA). HRP-conjugated mouse anti-DDDDK antibody in LiCor Blocking Buffer was incubated for 1 hour at room temperature, followed by 4×200 μL washes. Colorimetry was developed using TMB-One substrate and absorbance was measured at 655 nm on a SynergyMx Microplate Reader.

5-helix [4] = target: T1, 5-helix; assay type: cell-based, HIV; design: N-terminal superpositive GFP tethered to the 5-helix was cloned into pETDuet-1; His6 (N); His6 (C); expressed in transfected cells; host or cells: E. coli BL21 (DE3), pETDuet-1; conditions: E. coli co-expressing N-spGFP-5-helix and C-spGFP fusion, flow cytometry
Procedure: Split-Superpositive GFP (split-spGFP) Reassembly Assay: Split-spGFP reassembly experiments were performed as previously described (Chapman, A. M.; 3 McNaughton, B. R. Molecular BioSystems 2012, 8, 2036). […] The completed construct was transformed into BL21s (DE3) and the cells were made electrocompetent via standard protocols. Separately, GLUE-Cpep and C-peptide tethered to the C-terminal fragment of superpositive GFP were independently cloned into pBAD using restriction enzymes NcoI and BsrGI. Constructs were electroporated into electrocompetent BL21s (DE3) containing the N-terminal superpositive GFP plasmid, pulsing at 1.8 kV in a 1 mm cuvette. Cells were allowed to recover at 37° C. for 1 hour, and then plated onto agar plates containing carbenicillin and kanamycin. Individual colonies were picked and passaged once, followed by induction at 37° C. with 1 mM IPTG and 0.2% arabinosewhen cultures reached an OD600 of 0.5. After 6 hours, cells were spun down and resuspended in 5 mL PBS. GFP fluorescence was measured by MoFlo Flow Cytometer.

[5] = room temperature (~25 °C)
Procedure: Protein Purification: Genes were cloned into pETDuet-1 using restriction enzymes BamHI and PacI, downstream of a His6× tag and transformed into BL21s (DE3). Cells were grown in 2.5 L LB cultures containing 50 μg/mL carbenicillin at 37° C. to OD600=0.5 and induced with 1 mM IPTG at 25° C. overnight. Cells were then collected by centrifugation, resuspended in Tris buffer (20 mM Tris pH 7.4, 100 mM NaCl, 10 mM (NH4)2SO4) and stored at −20° C. Frozen pellets were thawed and sonicated with 1 second pulses for 2 minutes. The lysate was cleared by centrifugation (15,000 rpm 30 min.) and the supernatant was mixed with 1 mL of Ni-NTA agarose resin for 1 hour at 4° C. The resin was collected by centrifugation (4,750 rpm, 10 min.). The resin was sequentially washed with 50 mL of buffer containing 20 mM imidazole, 10 mL buffer containing 50 mM imidazole, and 5 mL buffer containing 100 mM imidazole. […] The proteins were dialyzed against Tris buffer and analyzed for purity by SDS-PAGE shown below. Purified protein concentrations were quantified using Beer's Law at an absorbance of 280 nm, following standard practice (Grimsley, G. R.; Pace, C. N. Current Protocols in Protein Science (2003), 3.1.1-3.1.9).
All proteins were produced recombinantly in a pET vector with a His6× tag. […] Their expression was quantified in mg/L and compared to wtGLUE (FIG. 12A). […]

[6] = Circular dichroism thermal denaturation at 222 nm; assay type: physicochemical; conditions: CD 222 nm, Tris buffer pH 7.4, 0 to 90 °C
Procedure: Circular Dichroism: Proteins were purified as described above. […] Wavelength data are the average of three scans from 250 nm to 200 nm in 1 nm steps at 25° C. Thermal denaturation experiments at 222 nm were run from 0 to 90° C. in two-degree steps at a two-degree/minute rate of increase with one-minute equilibration and data averaging at each temperature. Tm values were obtained from minima of the first derivative of θ versus 1/T plots.

Molecule	inhibition of HIV-1 infection at 250 nM (HIV-1 IIIB virus; 250 nM)	co-purification with His6-tagged 5-helix (5-helix [1])	ELISA signal for 5-helix after pre-incubation with human serum (5-helix [2])	ELISA signal / affinity for 5-helix (5-helix [3])	interaction-dependent GFP reassembly fluorescence (5-helix [4])	solubility and folding in aqueous solution [5]	Tm [6]	inhibition of HIV-1 infection (HIV-1 IIIB virus; dose dependent, compared to C34 and T20)
C26-ELMO: shortened C-peptide grafted onto N-terminal helix of ELMO (SEQ ID NO:7) (WMEWDREINNYTSLIHSLIEESQNQQKQQRLNRLVE)	some inhibition of infection	could also be purified alongside 5-Helix-His6×	–	–	–	–	–	–
B1	–	excellent selectivity	remains functional	slightly better affinity than the native C-peptide	highly fluorescent	soluble and well-folded	~79 °C	–
B2	–	–	–	strong ELISA signal	–	–	–	no inhibitory effect
